As usually defined, the Kd is the constant that tells how readily two partners part at equilibrium. Low readings indicate higher affinity, high ones lower affinity.

The source of these data is paper PMC3202338.

One test has as its target CFP-PAcKer [GFP: P42212]. The experiment in a line: ITC.
In test [1] the target is Bodipy conjugated IS_helix (Ser-36 mutated to cysteine). The experiment in a line: fluorescence polarisation. Background: Fluorescence polarisation rises when a labelled molecule tumbles more slowly, as on binding a larger partner.
In test [2] the target is alternative design: trunc-WT_IS-2 domain (PAK1 residues 87–137) inserted into CFP with glycine-serine linkers [GFP: P42212]. The experiment in a line: ITC. (In ITC the heat of successive injections is recorded.)
Test [3] has as its target WT_IS domain (residue 83–137 in full-length PAK1 sequence) (UniProt Q13153). The experiment in a line: ITC.
A further test deals with IS_helix. The experiment in a line: ITC.
Another test concerns the target IS_hairpin. The experiment in a line: ITC.
Test [4] concerns the target mero-CFP-PAcKer [GFP: P42212]. The experiment in a line: other fluorescence titration.

As for “PAK1^V127E/S144E (full-length PAK1 stabilized in the 'open' state, kinase dead K298R) (from UniProt Q13153 1-545) (enzyme)”, the dissociation constant Kd with CFP-PAcKer [GFP: P42212] was determined as 3300 nM.
As for “PAK1 kinase domain (K298R mutant), residues 250–545 (from UniProt Q13153 250-545) (domain or fragment)”, the dissociation constant Kd in test [1] worked out at 15000 nM; in test [2], 1650 nM; in test [3] it was 4000 nM; with IS_helix, 1600 nM; with IS_hairpin, 2600 nM; with CFP-PAcKer [GFP: P42212], 400 nM. The substance further returned a Kd in test [4] of 600 nM.
